We go through 14 molecules from patent US20160340421A1 (Regeneron, published 2016).

Positions count from the first letter of the chain named. Bounds are passed on as bounds.

The chains are these.
T1: Human GDF8 homodimer (mature human Growth and Differentiation Factor-8) (human, UniProt O14793 267-375)
T1 sequence: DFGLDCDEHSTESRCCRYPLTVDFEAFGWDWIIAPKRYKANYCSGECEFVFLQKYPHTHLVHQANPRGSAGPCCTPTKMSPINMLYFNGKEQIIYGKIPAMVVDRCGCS

T2: hGDF11 homodimer (human, UniProt O95390 299-407)
T2 sequence (looked up): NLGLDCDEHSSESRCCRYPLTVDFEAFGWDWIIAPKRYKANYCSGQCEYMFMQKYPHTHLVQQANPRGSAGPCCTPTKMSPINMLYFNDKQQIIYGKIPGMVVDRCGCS

B1: 58C8 (antibody, V domains shown)
VH: EVQLLESGGGLVQPGGSLRLSCAASGFTSITYAMSWVRQAPGKGLEWVSAISVSGTNTYYADSVKGRFTISRDKSKNMLYLQMNSLRAEDTAVYYCAKDLLHNWKYGTFDIWGQGTMVTVSS
VL: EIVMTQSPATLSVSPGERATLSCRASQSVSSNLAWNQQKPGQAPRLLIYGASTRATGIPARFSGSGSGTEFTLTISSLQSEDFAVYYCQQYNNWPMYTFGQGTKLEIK
B2: 22-G10 (antibody, V domains shown)
VH: QVHLKESGPTLVKPTQTLTLTCTFSGFSLSTSGVGVGWIRQPPGKALEWLALIYWNDDKRYSPSLKSRLTITKDTSKNQVVLTMTNMDPVDTATYYCTHTSRYNWHYGFLDYWGQGTTVTVSS
VL: AIQMTQSPSSLSASVGDRVTITCRASQGISNYLAWFQQKPGKAPKSLIYAASSLQSGVPSKFSGSGSGTDFTLTISSLQPEDFATYYCQQYNSYPLTFGGGTKVEIKR
B3: 20B12 (antibody, V domains shown)
VH: EVQLLESGGGLVQPGGSLRLSCAGSGITFSSYAMSWVRQAPGKGLEWVSAISGNGGTTNYADSVKGRFTISRDNSKNTLYLQMNSLRAEDTAVYYCAKERILTSSWTRYGIMDVWGQGTTVTVSS
VL: EIVMTQSPATLSMSPGERATLSCRASQSVSSNLAWYQQKPGQAPRLLIYGASTRATGIPARFSGSGSGTEFTLTISSLQSEDFAVYYCQQYNNWPLTFGGGTKLEIK
B4: 4B9 (antibody, V domains shown)
VH: B1 VH
VL: B3 VL with M13V, S30D, A34V, A43V, N93K, L104V
B5: 4E3-7 (antibody, V domains shown)
VH: EVQLLESGGGLVQPGGSLRLSCVASRFTFSSNAMSWVRQAPGTGLEWVSAITGSGSRTYYADSVKGRFTISRDNSKNTVYLQMNSLRGEDTAVYYCAKDQGGTWNYGDFDYWGQGTLVTVSS
VL: B3 VL with M13V, I58L, E70D, L104V
B6: 8D12-1 (antibody, V domains shown)
VH: QVQLVESGGGVVQPGRSLRLSCAASGFTFSRYGIHWVRQAPGKGLEWVAVISYDGSDEYYVDSVKGRFSISRDNSKNTLYLQMNSLRPADSAVYYCVKGDLELGFDYWGQGTLVTVSS
VL: DIVMTQAAPSIPVIPGESVSMSCRSSKSLLYSNGHTYVYWFVQRPGQSPQLLIYRMSNLASGVPDRFSGSGSGTAFTLRISRVEAEDVGVYYCMQNLEFPLTFGAGTKLELK
notes: probably the same antibody as 8D12
B7: 22-D3 (antibody, V domains shown)
VH: QVQLVQSGGGLVKPGGSLRLSCAASGFTFSSYSMNWVRQAPGKGLEWVSSISSSSSYIYYADSVKGRFTISRDNAKNSLYLQMNSLRAEDTAVYYCARDRGYTFGVDYWGQGTTVTVSS
VL: AIQMTQSPSSLSASVGDRVTITCRASQGIRNDLGWYQQKPGKAPKRLIYAASSLQSGVPSRFSGSGSGTEFTLTISSLQPEDFATYYCLQHNSYPYTFGQGTKVEIKR
B8: 22-E6 (antibody, V domains shown)
VH: QVQLVQSGPGLVKPSETLSLTCTVSGGSIITYSYYWGWIRQPPGKGLEWIGTIHHSGSTYYNPSLKSRVTISVDTSKNQFSLTLSSVTAADTAVYYCARDYYDSSGYYYNWFDPWGQGTMVTVSS
VL: B7 VL with Y94S, Y96W
B9: 21-B9 (antibody, V domains shown)
VH: B8 VH with I30S, T31N, Y32S, S33N, I53T, H54Y, H55Y, S58T, T83K, M120T
VL: B7 VL with A1D, M4L, G28D, T72S, I75L, Y87F, N92H, S93I, Y96W, V104L
B10: 21-E9 (antibody, V domains shown)
VH: EVQLVQLGPGLVKPSETLSLTCTVSGGSISNSNYYWGWIRQPPGKGLEWIGTTYYSGTTYYNPSLKSRVTISVDTSKNQFSLKLSSVTAADTAVYYCARDYYDSSGYYYNWFDPWGQGTTVTVSS
VL: B7 VL with G28D, T72S, I75L, Y87F, N92H, S93I, Y96W
B11: 19F2 (antibody, V domains shown)
VH: QVQLVESGGGVVQPGRSLRLSCEASGFTFSSSGMHWVRQAPGKGLQWVAVISYDGNNKFYEDSVKGRLTISRDNSNNTLWLQMNSLRVEDTAVYYCAKSGGRVGAAFAYWGQGTLVTVSS
VL: DIVNTQSPLSLPVTPGEPASISCRSSQSLLYGNGYNYLDWYLQKPGHSPQLLIYLGSNRGSGVPDRFSGSGSGTDFTLKISRVEAEDVGIYYCMQTLQTPFTFGPGTKMYIK
B12: 1H4-5 (antibody, V domains shown)
VH: QVQLVESGGDVVQPGRSLRLSCTASGFTFSSYGMHWVRQAPGRGLEWVAVISFDGKNKYYADSVKGRFTVSRDNSKNTLFLQMNSLRAEDTALYYCAKRIAATGYYYFYGLDVWGQGTTVTVSS
VL: B3 VL with V3M, M13V, A19G, T56S, I75V, L104V
B13: 9B4-3 (antibody, V domains shown)
VH: EVQLLESGGGLVQPGESLRLSCAASGFTFSSYAMNWVRQAPGKGLEWVSTISGSGGYIYYADSVKGRFTISRDNSKNTLYLQMNSLRAEDTAVYFCAKDSRYNWNYGNFDYWGQGTLVTVSS
VL: EIVMTQSPATLSVSPGERATLSCRASQNVSSNLAWNKQKPGQAPRLLIYATSTRATGVPARFSASGSGTDFALTINSLQSEDFAVYYCQQYNNWPLTFGGGTKVEIK
B14: 3E2-1 (antibody, V domains shown)
VH: QVQLQQWGAGLLKPSETLSLTCAVYGGSFSGYYWSWIRQPPGKGLEWIGEINHSGNTNYNPSLKSRVTISVDTSKNQFSLKLNSVTAADTAVYYCARREATVTPYFDYWGQGTLVTVSS
VL: DIQLTQSPSFLSASVGDRVTITCWASQGISSYLAWYQQKPGKAPKLLIYAASTLQSGVPSRFSGSGSGTEFTLTISSLQPEDFATYYCQQLNSYPLTFGGGTKVEIK

The target of the first assay is T1, Human GDF8 homodimer (mature human …). Description: cell-based or functional assay.
On to B1, for which the “IC50, GDF8-inducible luciferase, A204/Smad2 cells, 0.8 nM GDF8” value (“IC50 … A204/Smad2 cells, 0.8 nM GDF8” for short) was determined as 1.8 nM.
Regarding B2, the “IC50 … A204/Smad2 cells, 0.8 nM GDF8” value is 10.5 nM.
B3: the “IC50 … A204/Smad2 cells, 0.8 nM GDF8” value is over 20 nM.
With B4, the “IC50 … A204/Smad2 cells, 0.8 nM GDF8” value was 0.47 nM.
Turning to B5, the “IC50 … A204/Smad2 cells, 0.8 nM GDF8” value was determined as 10.4 nM.
With B6, the “IC50 … A204/Smad2 cells, 0.8 nM GDF8” value came out at 2.4 nM.
For the molecule B7, the “IC50 … A204/Smad2 cells, 0.8 nM GDF8” value is over 20 nM.
Still for that read-out and setting: the result for B8 reads 2.2 nM; that for B9, 0.62 nM.
B10: the “IC50 … A204/Smad2 cells, 0.8 nM GDF8” value came out at 0.99 nM.
On to B11, for which the “IC50 … A204/Smad2 cells, 0.8 nM GDF8” value is over 20 nM.

In the next assay the target is T2, hGDF11 homodimer. Description: cell-based or functional assay.
B1: the “IC50, GDF11-inducible luciferase, A204/Smad2 cells, 0.8 nM GDF11” value (shortened to “IC50 … A204/Smad2 cells, 0.8 nM GDF11”) was over 25 nM.
Take B2: the “IC50 … A204/Smad2 cells, 0.8 nM GDF11” value was over 25 nM.
Take B3: the “IC50 … A204/Smad2 cells, 0.8 nM GDF11” value is over 25 nM.
On to B4, for which the “IC50 … A204/Smad2 cells, 0.8 nM GDF11” value is over 25 nM.
Consider B5, for which the “IC50 … A204/Smad2 cells, 0.8 nM GDF11” value is over 25 nM.
In the case of B6, the “IC50 … A204/Smad2 cells, 0.8 nM GDF11” value was over 25 nM.
As to B7, the “IC50 … A204/Smad2 cells, 0.8 nM GDF11” value is over 25 nM.
As for B8, the “IC50 … A204/Smad2 cells, 0.8 nM GDF11” value is 22.4 nM.
As to B9, the “IC50 … A204/Smad2 cells, 0.8 nM GDF11” value turned out to be 1.2 nM.
In the case of B10, the “IC50 … A204/Smad2 cells, 0.8 nM GDF11” value came to 1.2 nM.
Regarding B11, the “IC50 … A204/Smad2 cells, 0.8 nM GDF11” value is over 25 nM.

The next assay has as its target T1, Human GDF8 homodimer (mature human …). In words: SPR, antibody captured, 25 nM antigen. The procedure: (§1) Equilibrium dissociation constants (KD values) for antigen binding to selected antibodies were determined by surface kinetics using a real-time biosensor surface plasmon resonance assay (BIACORE™ 2000). Each selected antibody was captured on either a goat anti-mouse IgG polyclonal antibody surface or a goat anti-hFc polyclonal antibody (Jackson Immuno Research Lab) surface created through direct chemical coupling to a BIACORE™ chip to form a captured antibody surface. Human GDF8 homodimer, hGDF11 homodimer, or hGDF5 homodimer at 25 nM was injected over the captured antibody surfaces, and antigen-antibody binding and dissociation were monitored in real time at room temperature. Kinetic analysis was performed to calculate KD, dissociation rate constants (kd), association rate constants (ka) and half-life of antigen/antibody complex dissociation (Table 2).
On the technique in general: In SPR one partner is held on a chip, and binding of the other changes the refractive index at the surface.
As for B1, the affinity, expressed as Kd, was 0.62 nM and the T1/2 came to 56 min.
Consider B2, for which the Kd – broadly, the free concentration of one partner at which half of the binding sites on the other are occupied at equilibrium, for simple one-to-one binding – was 0.25 nM and the T1/2 stood at 71 min.
B3 returned a Kd of 0.86 nM and a T1/2 of 39 min.
Take B4: the Kd was found to be 0.55 nM and the T1/2 was 55 min.
Take B5: the Kd came out at 1.89 nM and the T1/2 was found to be 27 min.
Consider B12, for which the Kd is 0.95 nM and the T1/2 was found to be 54 min.
Consider B13, for which the Kd came out at 1.18 nM and the T1/2 worked out at 50 min.
On to B14, for which binding was characterised by a dissociation constant (Kd) of 2.55 nM and the T1/2 came to 45 min.
The like results for B6 were, in that order, 0.66 nM and 95 min.
In turn, B7 yielded a Kd of 1.23 nM and a T1/2 of 34 min.
B8 yielded a Kd of 0.26 nM and a T1/2 of 148 min.
Turning to B9, the Kd came out at 0.12 nM and the T1/2 was found to be 126 min.
B10 displayed a Kd of 0.14 nM and a T1/2 of 155 min.
On to B11, for which the Kd amounted to 0.5 nM and the T1/2 was 38 min.

In the next assay the target is T2, hGDF11 homodimer. In words: SPR, antibody captured, 25 nM antigen. The protocol: as §1
Turning to B1, the affinity, expressed as Kd, was 0.44 nM and the T1/2 stood at 30 min.
As for B2, the dissociation constant Kd amounted to 0.73 nM and the T1/2 was 50 min.
Molecule B3 came in with a Kd of 2.08 nM and a T1/2 of 2 min.
The matching figures for B4: 1.09 nM and 34 min.
Molecule B5 had a dissociation constant Kd of 1.33 nM and a T1/2 of 29 min.
B12 came in with a Kd of 1.48 nM and a T1/2 of 24 min.
The molecule B13 registered a Kd of 1.08 nM and a T1/2 of 32 min.
The matching figures for B14: 0.7 nM and 79 min.
In the case of B6, the dissociation constant (Kd) stood at 1.87 nM and the T1/2 amounted to 23 min.
The like results for B7 were, in that order, 1.09 nM and 21 min.
As for B8, the Kd is 0.12 nM and the T1/2 came to 87 min.
B9 yielded a Kd of 0.064 nM and a T1/2 of 133 min.
As to B10, the Kd is 0.07 nM and the T1/2 was 221 min.
